Measurements reported in patent US10196447B2, “Anti-vascular endothelial growth factor receptor 2 (VEGFR2) antibody and methods of use thereof for detecting VEGFR2 and for inhibiting tumor growth, tumor angiogenesis and/or inducing cancer cell cytotoxicity” (Academia Sinica, priority 2015, dated 2019).

Experiments:
PC-3 xenografts = test: PC-3 human prostate cancer xenograft model; assay type: in vivo, NOD/SCID mice
Experimental: Procedures involving animals and their care were conducted according to the guidelines of the Academia Sinica Institutional Animal Care and Utilization Committee in compliance with national and international laws and policies. Non-obese diabetic-severe combined immunodeficiency (NOD/SCID) mice were purchased from the National Laboratory Animal Center (Taiwan). The human prostate cancer xenograft tumor model was developed by subcutaneously injecting 2×10^6 PC-3 cells into the dorsal flank of a six-week old male mouse. Animals were monitored daily for general health, and body weights were measured twice weekly. Tumor size was measured with slide calipers and calculated as length×width^2×0.52. […] An antibody dose of 20 mg/kg was injected twice a week for four weeks. For combination therapy, docetaxel (ScinoPharm Taiwan) was also intravenously administered at a dose of 5 mg/kg once a week for three weeks. At the end of the experiment, tumor tissue and visceral organs were removed and fixed for histological analysis.
For tumor blood vessel studies, samples were fixed in OCT. Frozen blocks were cut into 50 μm sections, and frozen tumor tissue sections were fixed with 1% paraformaldehyde, permeabilized with 0.1% TRITON™-X 100, blocked with normal horse serum (Vector), and then incubated for 1 hour at room temperature (RT) with a 1:100 dilution of the primary antibody (rat anti-mouse CD31 (PECAM-1); BD Bioscience). Subsequently, the tissue sections were incubated with Alexa 549-conjugated goat anti-rat antibody (Invitrogen) at room temperature for 1 hour. Nuclei were stained with DAPI, and sections were then mounted with fluorescent mounting solution. Immunofluorescent images were acquired using a Zeiss Axiovert 200M microscope. Positive areas of CD31 endothelial cells were quantified by pixel area counting and normalized with DAPI staining using ImageJ software under low power magnification.
The frozen tumor tissue sections were fixed with 1% paratbrmaldehyde and permeabilized with 0.1% TRITON™-X 100, before being incubated with terminal deoxynucleotidyltransferase-mediated dUTP nick end labeling reaction mixture (Roche Diagnostics) at 37° C. for 1 hour. After washing three times with PBS, the slides were incubated with FITC-anti-DIG antibody (1:2000) and DAPI (1:500). Slides were mounted with mounting solution and visualized under a fluorescent microscope. Slides were independently examined by three individuals. Areas with TUNEL-positive cells were quantified by pixel area counting, and normalized to DAPI staining using ImageJ software.

Met-Fc = test: Phage clone ELISA on control protein; assay type: binding
Experimental: (§1) The selected phages were further examined by ELISA screening. The 96-well plates were coated with 1 μg/ml of VEGFR2-Fc, Met-Fc (R&D), or BSA (Sigma) protein in 0.1 M sodium bicarbonate overnight at 4° C. After blocking with 1% BSA in PBS (w/v) for 2 hr at room temperature, 70-randomly selected phage clones were added to the plates at a 1:2 dilution in 1% BSA, and incubated for 1 hr at room temperature. Following washes with PBST, the plates were incubated with a 1:2000 dilution of horseradish peroxidase (HRP)-conjugated mouse anti-M13 phage antibody (GE) for 1 hr. After washing with PBST, the colorimetric reaction was developed with the peroxidase substrate ortho-phenylenediamine (OPD; Sigma) plus H2O2 for 15 min, and then terminated by the addition of 3 N HCl. The absorbance at 490 nm was determined using a microplate reader (SpectraMax, Molecular Devices). Plasmid DNA of positive clones were isolated and sequenced using the pCANTAB5 sequencing primer set.

VEGFR2-Fc = molecular target: T1, VEGFR2-Fc (Homo sapiens, UniProt P35968); test: Screening of anti-VEGFR2 phage clones by ELISA; assay type: binding; conditions: 1×10^9 cfu phage titer
T1 construct: purchased R&D Systems
T1 sequence (P35968 with tags, fused parts or gaps limits assumed): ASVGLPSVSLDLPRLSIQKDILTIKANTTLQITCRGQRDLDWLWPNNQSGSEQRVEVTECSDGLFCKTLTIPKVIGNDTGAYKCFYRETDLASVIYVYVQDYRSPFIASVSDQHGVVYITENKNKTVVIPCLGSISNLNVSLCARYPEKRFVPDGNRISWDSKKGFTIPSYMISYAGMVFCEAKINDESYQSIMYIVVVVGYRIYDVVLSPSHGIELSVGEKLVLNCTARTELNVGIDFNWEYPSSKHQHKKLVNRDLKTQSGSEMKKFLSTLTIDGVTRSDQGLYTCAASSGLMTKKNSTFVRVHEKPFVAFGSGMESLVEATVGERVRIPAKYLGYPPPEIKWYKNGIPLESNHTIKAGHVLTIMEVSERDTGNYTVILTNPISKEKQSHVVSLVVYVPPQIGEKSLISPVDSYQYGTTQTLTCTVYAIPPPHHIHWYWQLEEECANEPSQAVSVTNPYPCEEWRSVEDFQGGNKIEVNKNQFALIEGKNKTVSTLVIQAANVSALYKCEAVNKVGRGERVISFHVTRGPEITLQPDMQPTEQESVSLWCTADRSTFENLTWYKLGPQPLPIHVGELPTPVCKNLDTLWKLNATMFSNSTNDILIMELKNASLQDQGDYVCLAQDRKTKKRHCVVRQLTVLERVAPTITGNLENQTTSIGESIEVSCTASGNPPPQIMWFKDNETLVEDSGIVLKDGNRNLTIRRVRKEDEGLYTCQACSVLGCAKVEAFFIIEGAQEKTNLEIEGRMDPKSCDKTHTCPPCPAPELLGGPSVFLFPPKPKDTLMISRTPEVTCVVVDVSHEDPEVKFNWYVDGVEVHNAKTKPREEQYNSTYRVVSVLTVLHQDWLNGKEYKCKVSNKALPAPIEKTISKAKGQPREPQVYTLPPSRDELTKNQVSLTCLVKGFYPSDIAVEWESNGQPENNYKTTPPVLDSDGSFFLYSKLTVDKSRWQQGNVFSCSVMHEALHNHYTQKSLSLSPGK
Experimental: as §1

VEGFR2 = molecular target: T2, VEGFR2 (Homo sapiens, UniProt P35968); test: Competitive VEGF binding assay (ELISA): VEGF-A binding to immobilized VEGFR2; conditions: scFv; for competitive ability against VEGF-A binding to VEGFR2: plate-based competition binding assay; for IC50: 3 nM human VEGF-A, immobilized VEGFR2-Fc, read-out: half-maximal inhibitory concentration (IC50) of the interaction of VEGF-A with VEGFR2
T2 construct: purchased R&D Systems
T2 sequence (P35968 with tags, fused parts or gaps limits assumed): as above
Experimental: Various concentrations of anti-VEGFR2 scFvs were mixed with 3 nM human VEGF-A (Peprotech), and added to 96-well plates coated with 1 μg/ml of VEGFR2-Fc and pre-blocked in 1% BSA. After incubation for 1 hr at RT and washes with PBST, the bound VEGF molecules were detected using anti-VEGF mAb (GeneTex) and HRP-labeled goat anti-mouse IgG. The reaction was developed with a mixture of OPD and H2O2, and subsequently terminated with 3 N HCl. The absorbance was determined using a microplate reader at 490 nm.
To determine whether the anti-VEGFR2 scFvs can block VEGF-A binding to VEGFR2, we performed a plate-based competition binding assay in which increasing concentrations of scFvs competed with VEGF-A for binding to the immobilized VEGFR2.
We analyzed the affinity of both human antibodies to VEGFR2 using a BIACORE T100™. […] We performed solid-phase competitive assays to quantitatively evaluate the disruption of VEGF-A/VEGFR2 binding by individual antibodies.

VEGFR2 signaling pathway = test: Western blot of VEGF-A-induced phosphorylation in HUVECs; assay type: cell-based, human; conditions: scFv
Excerpt: Western blots were pertbrmed using standard protocols, as previously described. The primary antibodies were purchased from Cell Signaling Technology and used at a 1,000-fold dilution for protein detection; the antibodies used are as follows: anti-VEGFR2 (clone 55B11), anti-phospho-VEGFR2 (Tyr1175; clone 19A10), anti-FAK, anti-phospho-FAK (Tyr397; cloneD20B1), anti-p42/44 MAPK, anti-phospho-p42/44 MAPK (Thr202/Tyr204; cloneD13.14.4E), anti-Akt, and anti-phospho-Akt (Ser473).

murine VEGFR2 protein = murine VEGFR2 protein (Mus musculus, UniProt P35918, DEL223-227); test: Cross-reactivity with murine VEGFR2; assay type: binding
murine VEGFR2 protein, sequence (P35918 with tags, fused parts or gaps DEL223-227): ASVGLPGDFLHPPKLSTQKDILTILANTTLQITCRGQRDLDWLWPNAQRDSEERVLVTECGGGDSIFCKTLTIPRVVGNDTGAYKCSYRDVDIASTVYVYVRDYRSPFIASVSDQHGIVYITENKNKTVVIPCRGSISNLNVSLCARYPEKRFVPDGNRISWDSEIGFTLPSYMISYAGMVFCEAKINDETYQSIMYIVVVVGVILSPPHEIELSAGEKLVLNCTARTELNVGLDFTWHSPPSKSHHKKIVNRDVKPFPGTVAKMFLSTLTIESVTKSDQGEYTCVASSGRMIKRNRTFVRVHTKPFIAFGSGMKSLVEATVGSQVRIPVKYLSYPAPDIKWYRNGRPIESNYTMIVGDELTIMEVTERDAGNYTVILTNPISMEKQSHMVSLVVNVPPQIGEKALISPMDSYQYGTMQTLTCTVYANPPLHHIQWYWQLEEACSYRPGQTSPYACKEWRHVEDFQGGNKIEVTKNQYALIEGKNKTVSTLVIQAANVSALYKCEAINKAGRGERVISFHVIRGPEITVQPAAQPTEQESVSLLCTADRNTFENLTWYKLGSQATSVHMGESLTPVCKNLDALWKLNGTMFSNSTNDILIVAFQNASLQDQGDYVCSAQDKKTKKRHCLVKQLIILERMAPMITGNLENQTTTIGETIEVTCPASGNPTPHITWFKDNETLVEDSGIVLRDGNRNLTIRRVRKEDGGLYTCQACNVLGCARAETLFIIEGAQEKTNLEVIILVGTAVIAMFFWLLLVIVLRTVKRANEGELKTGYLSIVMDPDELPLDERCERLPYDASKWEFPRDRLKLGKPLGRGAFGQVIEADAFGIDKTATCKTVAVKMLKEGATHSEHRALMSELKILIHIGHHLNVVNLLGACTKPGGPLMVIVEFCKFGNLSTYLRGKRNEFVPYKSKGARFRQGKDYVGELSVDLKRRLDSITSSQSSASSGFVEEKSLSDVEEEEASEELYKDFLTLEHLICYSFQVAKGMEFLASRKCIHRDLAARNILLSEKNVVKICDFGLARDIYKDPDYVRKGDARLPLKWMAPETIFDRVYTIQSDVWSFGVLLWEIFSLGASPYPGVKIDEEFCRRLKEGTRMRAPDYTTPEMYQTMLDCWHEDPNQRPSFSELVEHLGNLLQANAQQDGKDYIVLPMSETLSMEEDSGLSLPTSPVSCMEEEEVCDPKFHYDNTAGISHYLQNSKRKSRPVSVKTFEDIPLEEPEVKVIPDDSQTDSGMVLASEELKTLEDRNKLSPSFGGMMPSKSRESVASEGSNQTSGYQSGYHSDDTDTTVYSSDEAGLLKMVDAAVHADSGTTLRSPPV

## CC(=O)O[C@@]12CO[C@@H]1C[C@H](O)[C@@]1(C)C(=O)[C@H](O)C3=C(C)[C@@H](OC(=O)[C@H](O)[C@@H](NC(=O)OC(C)(C)C)c4ccccc4)C[C@@](O)([C@@H](OC(=O)c4ccccc4)[C@H]21)C3(C)C [docetaxel, reference compound]
PC-3 xenografts; by day 38, antibody 20 mg/kg i.v. twice a week, docetaxel 5 mg/kg i.v. once a week
  tumor growth reduction: 70%
PC-3 xenografts; treatment period
  loss of body weight: about 20%

B1: R2PC28: phage-displayed human scFv clone binding VEGFR2; VH CDR1-3 SEQ ID NO: 11-13, VL CDR1/CDR3 SEQ ID NO: 14, 15 (antibody, V domains shown)
VH: EVQLVESGGALVQPGGSLRLSCVGSEFTFSHYNLHWVRQAPGKGLEWLAVISDDGRNKYYGDSVKGRFTISRDNSKNTLYLQMNGLRAEDTAVYYCARVPTVWRGGVYDIWGQGTMVTVSS
VL: EIVLTQSPATLSLSPGERATLSCRASQSVGSYLAWYQQRPGQPPRLLIYDASNRATGVAARFSGSGSGTDFTLTIDSLEAEDAATYYCHQSSSLPRTFGQGTKLEIK
Met-Fc
  binding of phage clones to c-Met-Fc control protein: not
VEGFR2-Fc
  binding of phage clones to VEGFR2-Fc: bind highly

B2: R2S28: soluble anti-VEGFR2 scFv protein generated from phage clone R2PC28 (antibody, V domains shown)
VH: EVQLVESGGALVQPGGSLRLSCVGSEFTFSHYNLHWVRQAPGKGLEWLAVISDDGRNKYYGDSVKGRFTISRDNSKNTLYLQMNGLRAEDTAVYYCARVPTVWRGGVYDIWGQGTMVTVSS
VL: EIVLTQSPATLSLSPGERATLSCRASQSVGSYLAWYQQRPGQPPRLLIYDASNRATGVAARFSGSGSGTDFTLTIDSLEAEDAATYYCHQSSSLPRTFGQGTKLEIK
VEGFR2
  competitive ability against VEGF-A binding to VEGFR2: comparatively weak competitive ability

B3: R2S12: soluble anti-VEGFR2 scFv protein from phage clone R2PC12; VH SEQ ID NO: 76, VL SEQ ID NO: 77 (antibody, V domains shown)
VH: QVNLRESGGGLVKPGGSLRLSCAASGFTFGSYTMNWVRQAPGKGLEWVASITSGSSYIFYTDSVKGRFTISRDNSRSSLFLQMNSLRAEDTAIYYCARGSASAFDIWGQGTMVTVSS
VL: DIQMTQSPSSLSASVGDRVTITCKASDDIINYLNWYQQKPGEAPKLLIYDASILETGVPSRFSGSGSGTDFTFTISSLQPEDIATYYCQQYDILPLTFGGGTKLEIK
modifications: scFv linker; VH region of R2S12 or R2S12-AF; VL region of R2S12
VEGFR2 signaling pathway
  tyrosine phosphorylation of VEGFR2 by VEGF-A: strongest inhibition activity
Murine VEGFR2 protein
  cross-reaction / binding to murine VEGFR2: did not cross-react
VEGFR2
  IC50: 3.26 nM

B4: R2PC45: phage-displayed human scFv clone binding VEGFR2; VH CDR1-3 SEQ ID NO: 21-23, VL CDR1/CDR3 SEQ ID NO: 24, 25 (antibody, V domains shown)
VH: QVNLRESGGGVVQPGRSLRLSCAASGFTFSSYAMHWVRQAPGKGLEWVAVISYDGSNKYYADSVKGRFTISRDNSKNTLYLQMNSLRAEDTAVYYCAREQDYGSSSGDAFDIWGQGTMVTVSS
VL: DIQMTQSPSSLSASVGDRVTITCRASQRISSYLNWYQQKPGKAPKLLIYDASNLQSGVPSRFSGSGSGTDFTLTINGLQPDDFAIYFCHQSYSAPPTFGQGTKVEIK
Met-Fc
  binding of phage clones to c-Met-Fc control protein: not
VEGFR2-Fc
  binding of phage clones to VEGFR2-Fc: bind highly

B5: R2PC8: phage-displayed human scFv clone binding VEGFR2; VH CDR1-3 SEQ ID NO: 1-3, VL CDR1/CDR3 SEQ ID NO: 4, 5 (antibody, V domains shown)
VH: QVQLVQSGGGLVKPGGSLRLSCAASGFTFSSYSMSWVRQAPGKGLEWVSSISSSSSYIYYADSVKGRFTISRDNAKNSLYLQMNSLRAEDTAVYYCARSTDAFDIWGQGTMVTVSS
VL: DIVMTQSPSSLSASVGDRVTITCRASQRISNYLNWYQHKSGEDPKLLIYAASSLQSGVPSRFSGSGSGTDFTLTISSLQPEDFATYYCQQYDRYPPTFGQGTKLEIK
Met-Fc
  binding of phage clones to c-Met-Fc control protein: not
VEGFR2-Fc
  binding of phage clones to VEGFR2-Fc: bind highly

B6: R2S8: soluble anti-VEGFR2 scFv protein generated from phage clone R2PC8 (antibody, V domains shown)
VH: QVQLVQSGGGLVKPGGSLRLSCAASGFTFSSYSMSWVRQAPGKGLEWVSSISSSSSYIYYADSVKGRFTISRDNAKNSLYLQMNSLRAEDTAVYYCARSTDAFDIWGQGTMVTVSS
VL: DIVMTQSPSSLSASVGDRVTITCRASQRISNYLNWYQHKSGEDPKLLIYAASSLQSGVPSRFSGSGSGTDFTLTISSLQPEDFATYYCQQYDRYPPTFGQGTKLEIK
VEGFR2 signaling pathway
  tyrosine phosphorylation of VEGFR2 by VEGF-A: inhibited
Murine VEGFR2 protein
  cross-reaction / binding to murine VEGFR2: did not cross-react
VEGFR2
  IC50: 7.03 nM

B7: R2PC29: phage-displayed human scFv clone binding VEGFR2; VH CDR1-3 SEQ ID NO: 16-18, VL CDR1/CDR3 SEQ ID NO: 19, 20 (antibody, V domains shown)
VH: QVQLQQSGAEMKKSGSSVKVSCKASGGNFISKGISWVRQAPGQGLEWMGGIIPLFGTGNYAQKFQGRVTITADESTTTVYLQLTSLTPEDTAMYFCATADVDYSDSLEAFDMWGQGTMVTVSS
VL: DIVMTQSPSSLSASVGDRVTITCRASQSINNYLNWYQQKPGKAPNLLIYGASSLQSGVPSRFRGSGSGTDFTLTISSLQPEDFATYYCQQSYSTPLFGQGTKLEIK
Met-Fc
  binding of phage clones to c-Met-Fc control protein: not
VEGFR2-Fc
  binding of phage clones to VEGFR2-Fc: bind highly

B8: R2S29: soluble anti-VEGFR2 scFv protein generated from phage clone R2PC29 (antibody, V domains shown)
VH: QVQLQQSGAEMKKSGSSVKVSCKASGGNFISKGISWVRQAPGQGLEWMGGIIPLFGTGNYAQKFQGRVTITADESTTTVYLQLTSLTPEDTAMYFCATADVDYSDSLEAFDMWGQGTMVTVSS
VL: DIVMTQSPSSLSASVGDRVTITCRASQSINNYLNWYQQKPGKAPNLLIYGASSLQSGVPSRFRGSGSGTDFTLTISSLQPEDFATYYCQQSYSTPLFGQGTKLEIK
VEGFR2
  competitive ability against VEGF-A binding to VEGFR2: comparatively weak competitive ability
